From patent US8557986B2, “Method of producing polysaccharide derivatives” (Seikagaku Corporation, priority 2006, dated 2013)

Test: Test Example 2: passage of 1.0% (w/v) aqueous solution through 0.22 μm porous filter
Type: physicochemical
Details: Millex-GV 0.22 μm pore diameter, room temperature, absorbance before and after filter passage
Protocol: Each of the aqueous solutions (test solutions) was injected into a rear portion of a syringe (1 mL in volume: manufactured by TERUMO Corporation) equipped with a porous filter (Millex-GV of 0.22 μm pore diameter: manufactured by Millipore Corporation) and was pressed out with a piston at room temperature to pass through the porous filter.
The diclofenac-based absorbance (peak top) at about 280 nm was measured for each of the test solutions before, and after the filter passage of at least 0.5 mL. The filter passage coefficient of each test solution was expressed by a concentration of the diclofenac content in the test solution before and after the filter passage that was calculated from the change in measured absorbance.

| Substance | filter passage coefficient |
| --- | --- |
| aminoethanol-diclofenac-introduced sodium hyaluronate [Example 1] | 95.3% |
| aminoethanol-diclofenac-introduced sodium hyaluronate [Reference Example 3] | 96.9% |
| aminoethanol-diclofenac-introduced sodium hyaluronate [Reference Example 4] | 11.0% |

Test: not given
Details: not given
Protocol: The aminoethanol-diclofenac-introduced sodium hyaluronate prepared in Reference Examples 1 and 2 were tested by the same procedure.

| Substance | solubility in distilled water (appearance of the solution) |
| --- | --- |
| aminoethanol-diclofenac-introduced sodium hyaluronate [Example 2] | homogeneously dissolved in distilled water and yielded clear and viscous aqueous solutions |
| aminoethanol-diclofenac-introduced sodium hyaluronate [Example 3] | homogeneously dissolved in distilled water and yielded clear and viscous aqueous solutions |
| aminoethanol-diclofenac-introduced sodium hyaluronate [Reference Example 1] | not dissolved in distilled water but yielded a white suspension |
| aminoethanol-diclofenac-introduced sodium hyaluronate [Reference Example 2] | homogeneously dissolved in distilled water and yielded clear and viscous aqueous solutions |
